Article PMC8369199

Target: cetuximab (human)
Assay: BLI; cetuximab (20 µg/ml) immobilised on Fab2G sensors; scFv hFc4 25 to 200 nM in kinetics buffer; 1:1 Langmuir model

- Kd: 20.5 nM
B1: humanized scFv hFc4 (scFv, V domains shown)
VH: EVQLLESGGGLVQPGGSLRLSCAASGFTFSSYAMNWVRQAPGKGLEFVAGINAAGSGANYAPAVKGRATISRDNSPNTVYLQMNSLRAEDTAVYYCAKGSGSCNHCGGGHGGMIDEWGQGTLVTVSS
VL: SYELMQPPSVSVSPGQTARITCSGGSSTYYGWYQQKPGQAPVTVIYWDDERPSGIPERFSGSSSGNTVTLTINGVQAEDEADYYCGGYDSSVGIFGGGTKLTVL
